Source: patent US20090017041A1

What was measured:
[1] = target: high molecular weight (HMW) proto-fibrillar (PF) oligomer enriched preparation of the Aβ1-42 peptide (Example 15) (human); experiment: ELISA, fraction coated at 2 µM; antibody 0.5 µg/ml
[2] = target: low molecular weight (LMW) monomeric preparation of the Aβ1-42 peptide (Example 15) (human); experiment: ELISA, fraction coated at 2 µM; antibody 0.5 µg/ml
[3] = target: high molecular weight (HMW) proto-fibrillar (PF) oligomer enriched preparation of the Aβ1-42 peptide (Example 15) (human); experiment: ELISA, fraction coated at 2 µM; antibody 0.0625 µg/ml
[4] = target: low molecular weight (LMW) monomeric preparation of the Aβ1-42 peptide (Example 15) (human); experiment: as above
[5] = target: oligomer-enriched preparation of the Aβ1-42 peptide (Example 16); experiment: ELISA, fraction coated at 2.2 µM; antibody dilution 1:8 (start 0.5 µg/ml)
Sequence of oligomer-enriched preparation of the Aβ1-42 peptide (Example 16) (peptide, as listed by the source): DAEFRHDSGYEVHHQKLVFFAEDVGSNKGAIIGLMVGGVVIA

[6] = target: monomer-enriched preparation of the Aβ1-42 peptide (Example 16); experiment: ELISA, fraction coated at 2.2 µM; antibody dilution 1:64 (start 0.5 µg/ml)
Sequence of monomer-enriched preparation of the Aβ1-42 peptide (Example 16) (peptide, as listed by the source): as above

[7] = target: oligomer-enriched preparation of the Aβ1-42 peptide (Example 16); experiment: as above
[8] = target: monomer-enriched preparation of the Aβ1-42 peptide (Example 16); experiment: ELISA, fraction coated at 2.2 µM; assay 1; antibody dilution 1:1 (start 0.5 µg/ml)
[9] = target: oligomer-enriched preparation of the Aβ1-42 peptide (Example 16); experiment: as above
[10] = target: oligomer-enriched preparation of the Aβ1-42 peptide (Example 16); experiment: ELISA, fraction coated at 2.2 µM; assay 1; antibody dilution 1:4 (start 0.5 µg/ml)
[11] = target: monomer-enriched preparation of the Aβ1-42 peptide (Example 16); experiment: ELISA, fraction coated at 2.2 µM; assay 1; antibody dilution 1:8 (start 0.5 µg/ml)
[12] = target: oligomer-enriched preparation of the Aβ1-42 peptide (Example 16); experiment: as above
[13] = target: monomer-enriched preparation of the Aβ1-42 peptide (Example 16); experiment: ELISA, fraction coated at 2.2 µM; assay 2; antibody dilution 1:1 (start 0.5 µg/ml)
[14] = target: oligomer-enriched preparation of the Aβ1-42 peptide (Example 16); experiment: as above
[15] = target: monomer-enriched preparation of the Aβ1-42 peptide (Example 16); experiment: ELISA, fraction coated at 2.2 µM; assay 2; antibody dilution 1:2 (start 0.5 µg/ml)
[16] = target: oligomer-enriched preparation of the Aβ1-42 peptide (Example 16); experiment: as above
[17] = target: monomer-enriched preparation of the Aβ1-42 peptide (Example 16); experiment: ELISA, fraction coated at 2.2 µM; assay 3; antibody dilution 1:2 (start 0.5 µg/ml)
[18] = target: oligomer-enriched preparation of the Aβ1-42 peptide (Example 16); experiment: as above
[19] = target: oligomer-enriched preparation of the Aβ1-42 peptide (Example 16); experiment: ELISA, fraction coated at 2.2 µM; assay 3; antibody dilution 1:8 (start 0.5 µg/ml)
[20] = target: monomer-enriched preparation of the Aβ1-42 peptide (Example 16); experiment: ELISA, fraction coated at 2.2 µM; assay 1; antibody dilution 1:16 (start 0.5 µg/ml)
[21] = target: oligomer-enriched preparation of the Aβ1-42 peptide (Example 16); experiment: as above
[22] = target: monomer-enriched preparation of the Aβ1-42 peptide (Example 16); experiment: ELISA, fraction coated at 2.2 µM; assay 1; antibody dilution 1:64 (start 0.5 µg/ml)
[23] = target: oligomer-enriched preparation of the Aβ1-42 peptide (Example 16); experiment: as above
[24] = target: monomer-enriched preparation of the Aβ1-42 peptide (Example 16); experiment: ELISA, fraction coated at 2.2 µM; assay 2; antibody dilution 1:32 (start 0.5 µg/ml)
[25] = target: oligomer-enriched preparation of the Aβ1-42 peptide (Example 16); experiment: as above
[26] = target: monomer-enriched preparation of the Aβ1-42 peptide (Example 16); experiment: ELISA, fraction coated at 2.2 µM; assay 2; antibody dilution 1:64 (start 0.5 µg/ml)
[27] = target: oligomer-enriched preparation of the Aβ1-42 peptide (Example 16); experiment: as above
[28] = target: monomer-enriched preparation of the Aβ1-42 peptide (Example 16); experiment: ELISA, fraction coated at 2.2 µM; assay 3; antibody dilution 1:32 (start 0.5 µg/ml)
[29] = target: oligomer-enriched preparation of the Aβ1-42 peptide (Example 16); experiment: as above
[30] = target: monomer-enriched preparation of the Aβ1-42 peptide (Example 16); experiment: ELISA, fraction coated at 2.2 µM; assay 3; antibody dilution 1:64 (start 0.5 µg/ml)
[31] = target: oligomer-enriched preparation of the Aβ1-42 peptide (Example 16); experiment: as above
[32] = target: monomer-enriched preparation of the Aβ1-42 peptide (Example 16); experiment: ELISA, fraction coated at 2.2 µM; assay 2; antibody dilution 1:128 (start 0.5 µg/ml)
[33] = target: oligomer-enriched preparation of the Aβ1-42 peptide (Example 16); experiment: as above

Sequence of high molecular weight (HMW) proto-fibrillar (PF) oligomer enriched preparation of the Aβ1-42 peptide (Example 15) (human) (peptide, as listed by the source): as above
Sequence of low molecular weight (LMW) monomeric preparation of the Aβ1-42 peptide (Example 15) (human) (peptide, as listed by the source): as above

What does the source list for 6E10 control antibody?
O.D. (405 nm) [1]: 2 O.D.; O.D. (405 nm) [2]: 2.13 O.D.; O.D. (405 nm) [3]: 0.544 O.D.; O.D. (405 nm) [4]: 0.574 O.D.; O.D. (405 nm), mean of 3 assays [5]: 2.98 O.D.; O.D. (405 nm), mean of 3 assays [6]: 0.94 O.D.; O.D. (405 nm), mean of 3 assays [7]: 0.92 O.D.; O.D. (405 nm) [8]: 3.67 O.D.; O.D. (405 nm) [9]: 3.36 O.D.; O.D. (405 nm) [10]: 3.1 O.D.; O.D. (405 nm) [11]: 2.67 O.D.; O.D. (405 nm) [12]: 2.73 O.D.; O.D. (405 nm) [13]: 3.77 O.D.; O.D. (405 nm) [14]: 3.67 O.D.; O.D. (405 nm) [15]: 3.48 O.D.; O.D. (405 nm) [16]: 3.55 O.D.; O.D. (405 nm) [17]: 4 O.D.; O.D. (405 nm) [18]: 3.83 O.D.; O.D. (405 nm) [19]: 3.23 O.D.; O.D. (405 nm) [20]: 1.78 O.D.; O.D. (405 nm) [21]: 1.78 O.D.; O.D. (405 nm) [22]: 0.81 O.D.; O.D. (405 nm) [23]: 0.93 O.D.; O.D. (405 nm) [24]: 1.34 O.D.; O.D. (405 nm) [25]: 1.3 O.D.; O.D. (405 nm) [26]: 0.94 O.D.; O.D. (405 nm) [27]: 0.88 O.D.; O.D. (405 nm) [28]: 1.54 O.D.; O.D. (405 nm) [29]: 1.4 O.D.; O.D. (405 nm) [30]: 1.08 O.D.; O.D. (405 nm) [31]: 0.95 O.D.; O.D. (405 nm) [32]: 0.75 O.D.; O.D. (405 nm) [33]: 0.61 O.D.
